Source: the supplement of paper PMC10567573
± gives the standard deviation.

Assay: protein stability index of a GFP-peptide fusion (GPS, HEK-293T) (PSI 1-6); higher = more stable
[1] = treatment: DMSO, c terminus: a fixed tail appended
[2] = treatment: MLN4924 1 uM, 8 h, c terminus: a fixed tail appended
[3] = treatment: DMSO, c terminus: native
[4] = treatment: MLN4924 1 uM, 8 h, c terminus: native
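Also: 24-mer peptide tiles fused after GFP, lentivirally expressed, FACS-sorted into six equal bins by GFP/DsRed ratio, decoded by Illumina sequencing, PSI is the read-weighted mean bin number.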

Sequence: RKSSKLIMELTGGGQESSGLNLGK [MYOZ1]
- protein stability index [1]: 3.72 ± 0.082
- protein stability index [2]: 3.98 ± 0.26

Sequence: ITALLNVSRRTSEACMTHLHYKWI [DUSP5]
- protein stability index [1]: 2.75 ± 0.53
- protein stability index [2]: 2.54 ± 0.32

Sequence: FSSDKAKAGSSEWLAVDGLVSPSN [ATF4]
- protein stability index [1]: 3.8 ± 0.26
- protein stability index [2]: 4.08 ± 0.32

Sequence: YFEGAPFPHPLWLRDTYKLWVPQP [PWWP2B]
- protein stability index [1]: 2.05 ± 0.24
- protein stability index [2]: 2.18 ± 0.3

Sequence: LTDAYGPPSNFLEIDIFNPQTVGV [SNX12]
- protein stability index [1]: 2.87 ± 0.39
- protein stability index [2]: 3.19 ± 0.39

Sequence: TVQHGAVYSLEPRLCGGKGGFGSM [SDE2]
- protein stability index [1]: 2.33 ± 0.37
- protein stability index [2]: 2.39 ± 0.29

Sequence: EQAPAPGEATAAPAPLCGGPSAEA [TBX6]
- protein stability index [1]: 5.5 ± 0.31
- protein stability index [2]: 5.46 ± 0.25

Sequence: RDNGHSNRDEHSSRGYRNHRSSRE [RBMY1A1]
- protein stability index [1]: 5.1 ± 0.074
- protein stability index [2]: 5.24 ± 0.088

Sequence: QECPPDGRSFREEQCVSFNSHVYN [ADAMTSL2]
- protein stability index [1]: 4.08 ± 0.11
- protein stability index [2]: 3.91 ± 0.2

Sequence: SRGACTSHDPQSSRGSRRRRRQRS [KCNA4]
- protein stability index [1]: 5.39 ± 0.4
- protein stability index [2]: 5.53 ± 0.32

Sequence: LSTLAGIRVMVHGRNHTPFLGHHS [SCNN1D]
- protein stability index [1]: 2.69 ± 0.28
- protein stability index [2]: 2.64 ± 0.23

Sequence: PVRAAASSPVTTLTQTMHDLAGLG [CDC25B]
- protein stability index [1]: 4.03 ± 0.24
- protein stability index [2]: 3.93 ± 0.19

Sequence: SSEAFHNYMNAAMVHINRALKLII [RTN3]
- protein stability index [1]: 2.62 ± 0.46
- protein stability index [2]: 2.06 ± 0.38

Sequence: MGVVSLVFLIIYYLDPSVLSGVSC [ARL6IP1]
- protein stability index [1]: 3.18 ± 0.51
- protein stability index [2]: 3.13 ± 0.33

Sequence: GSAAPGSPLAADPACLGQPHTPGK [FOXJ1]
- protein stability index [1]: 5.25 ± 0.29
- protein stability index [2]: 5.4 ± 0.13

Sequence: GASLYAISNVCEEYIVKKLSRQEF [SLC35F2]
- protein stability index [1]: 2.3 ± 0.27
- protein stability index [2]: 2.45 ± 0.43

Sequence: VKILEPKTKEVQHNCQLHRISFCA [GULP1]
- protein stability index [1]: 2.33 ± 0.22
- protein stability index [2]: 2.25 ± 0.17

Sequence: PTGEGSISHEEQKSVRLARELESR [CHCHD6]
- protein stability index [1]: 5.33 ± 0.17
- protein stability index [2]: 5.35 ± 0.33

Sequence: ILAIIAKEGDCAPEEKIWEELSVL [MAGEA6]
- protein stability index [1]: 2.44 ± 0.26
- protein stability index [2]: 2.48 ± 0.43

Sequence: FELALQLAEMKDDSDSEKQQQIHH [VPS39]
- protein stability index [1]: 4.76 ± 0.17
- protein stability index [2]: 4.8 ± 0.12

Sequence: MMEKILGPIPSHMIHRTRKQKYFY [CLK3]
- protein stability index [1]: 2.27 ± 0.84
- protein stability index [2]: 2.12 ± 0.3

Sequence: VLLAVLPVLLLQITVGLVFLCLQY [MOG]
- protein stability index [1]: 3.18 ± 0.24
- protein stability index [2]: 3.13 ± 0.32

Sequence: DFSRCDMDGATLCNCALEELRLVF [ELF3]
- protein stability index [1]: 2.37 ± 0.15
- protein stability index [2]: 2.11 ± 0.32

Sequence: EEKQHLERLNKEYQEIFQQLQRSW [TRIM43]
- protein stability index [1]: 3.84 ± 0.23
- protein stability index [2]: 3.77 ± 0.42

Sequence: TGVFITLSIVLERMRYEGVVDIFQ [PTPRD]
- protein stability index [2]: 3.66 ± 0.2

Sequence: TISFICRELDAISTNEEEKEENEA [PRIM1]
- protein stability index [1]: 5.16 ± 0.26
- protein stability index [2]: 5.16 ± 0.1

Sequence: CIRLWKYALDMQQSNLEPLSPMTA [FEM1A]
- protein stability index [1]: 2.52 ± 0.54
- protein stability index [2]: 2.34 ± 0.35

Sequence: TKVRKQEIIKVTEQLIEAISNGDF [CAMK2A]
- protein stability index [1]: 2.38 ± 0.32
- protein stability index [2]: 2.66 ± 0.42

Sequence: HFDATRGWLLTSGTDKVIKLWDMT [WDFY2]
- protein stability index [1]: 2.43 ± 0.3
- protein stability index [2]: 2.78 ± 0.41

Sequence: LHVSLGQKLVAAYVLGLLTMVFLR [MOSPD3]
- protein stability index [1]: 3.17 ± 0.42
- protein stability index [2]: 2.89 ± 0.28

Sequence: QVALLRLTWSELFVLNAAQCSMPL [NR2F2]
- protein stability index [1]: 2.97 ± 0.44
- protein stability index [2]: 3 ± 0.41

Sequence: LLDATVAGGQTRLQASDRYRDLAG [FCHSD1]
- protein stability index [1]: 3.99 ± 0.14
- protein stability index [2]: 3.86 ± 0.12

Sequence: DRVGTIKSKVVGDRENGSDNLPSS [TPD52L2]
- protein stability index [1]: 5.17 ± 0.29
- protein stability index [2]: 5.17 ± 0.18

Sequence: GKSVSSSSSVETGPSVSEPPGLPR [SPATS1]
- protein stability index [1]: 5.08 ± 0.18
- protein stability index [2]: 5.11 ± 0.067

Sequence: DLDPLELIALANRFCLPHLVALAE [RHOBTB1]
- protein stability index [1]: 2.5 ± 0.11
- protein stability index [2]: 2.14 ± 0.2

Sequence: IVCAQSSQSLWNRLSVLLNLLPAA [SMG5]
- protein stability index [1]: 2.8 ± 0.31
- protein stability index [2]: 2.99 ± 0.28

Sequence: GVVDSEDLPLNISREMLQQSKILK [HSP90AB1]
- protein stability index [1]: 4.09 ± 0.22
- protein stability index [2]: 4.14 ± 0.28

Sequence: YKKGIIRKPDISQRLVYQFVHPI [SPDEF]
- protein stability index [3]: 2.43 ± 0.48
- protein stability index [4]: 2.63 ± 0.4

Sequence: FESHDLLRKGFSCVKNELLPSHPL [POMP]
- protein stability index [1]: 2.92 ± 0.31
- protein stability index [2]: 3.05 ± 0.42

Sequence: ALFKANRLEKAVAAAYTFLQRNPK [P3H4]
- protein stability index [1]: 2.48 ± 0.27
- protein stability index [2]: 2.12 ± 0.53

Sequence: PYIPPHAALCLEVTLKTAVDGPDL [FKBP8]
- protein stability index [1]: 2.32 ± 0.41
- protein stability index [2]: 2.23 ± 0.2

Sequence: DDRKLAALLKFHTLDSYEDKQKLK [YJU2B]
- protein stability index [1]: 3.97 ± 0.28
- protein stability index [2]: 4.12 ± 0.27

Sequence: TGDPLPEISKDNSCKENCTCSSCL [EDARADD]
- protein stability index [1]: 5.47 ± 0.3
- protein stability index [2]: 5.47 ± 0.26

Sequence: DTTEEVDHKPKLCRLAKGENGYGF [PDZK1]
- protein stability index [1]: 3.64 ± 0.32
- protein stability index [2]: 3.79 ± 0.38

Sequence: EVKPKDIIHVVKDQLIGQGIIVKD [TENT5D]
- protein stability index [1]: 3.52 ± 0.066
- protein stability index [2]: 3.73 ± 0.25

Sequence: EREASPSNSCQDSTDTESNNEEQR [IKZF1]
- protein stability index [1]: 5.24 ± 0.45
- protein stability index [2]: 5.61 ± 0.22

Sequence: LGHMFMYFLRGSLPWQGLKADTLK [CSNK1G3]
- protein stability index [1]: 2.06 ± 0.26
- protein stability index [2]: 2.57 ± 0.98

Sequence: QRQAIKGAFYRRAQRLRPQDEPRQ [KCNG1]
- protein stability index [1]: 3.87 ± 0.24
- protein stability index [2]: 4.16 ± 0.22

Sequence: VRHNLGDTRLGQVSALPLPPAMKR [SPSB2]
- protein stability index [1]: 3.89 ± 0.097
- protein stability index [2]: 3.98 ± 0.33

Sequence: FWQTQYNNMNAVNLFFAWIKIFKY [PKD2L1]
- protein stability index [1]: 2.38 ± 0.38
- protein stability index [2]: 2.19 ± 0.52

Sequence: KDILGFAVMFFIVFFAYAQLGYLL [PKD2L1]
- protein stability index [1]: 2.81 ± 0.42
- protein stability index [2]: 2.93 ± 0.54

Sequence: LEVPAGSRLNLTGLGYFSCHSHTV [CCDC3]
- protein stability index [1]: 2.57 ± 0.33
- protein stability index [2]: 2.2 ± 0.25

Sequence: VASLERFSTYTSDKDENKLSEASG [ZC3H15]
- protein stability index [1]: 5.01 ± 0.42
- protein stability index [2]: 4.96 ± 0.2

Sequence: EVDGLRGTNEALLRQLRELEEQFA [PRPH]
- protein stability index [1]: 4.35 ± 0.17
- protein stability index [2]: 4.32 ± 0.26

Sequence: RRTYLGGAAGRSQEPEVPCAAVLP [RSPH3]
- protein stability index [1]: 4.37 ± 0.092
- protein stability index [2]: 4.37 ± 0.18

Sequence: GAFDSFLLRFGVPSPSTLEPHPRP [TNXB]
- protein stability index [1]: 2.99 ± 0.42
- protein stability index [2]: 2.97 ± 0.35

Sequence: SSSASYGGGFGGGSCQLGGGRGVS [KRT13]
- protein stability index [1]: 3.71 ± 0.65
- protein stability index [2]: 3.94 ± 0.36

Sequence: KSISPWKSPPQLRQFLPEEFMKTL [DENND6A]
- protein stability index [1]: 2.47 ± 0.088
- protein stability index [2]: 2.61 ± 0.3

Sequence: SSVQSYPGSASLAQSRLEDPGQDL [DLX1]
- protein stability index [1]: 4.89 ± 0.28
- protein stability index [2]: 5.09 ± 0.19

Sequence: FLVLEQFLTILPEELQSWVRGHHP [ZNF232]
- protein stability index [1]: 2.45 ± 0.55
- protein stability index [2]: 2.5 ± 0.62

Sequence: RHRIPEPEAAVLFRQMATALAHCH [TRIB3]
- protein stability index [1]: 2.48 ± 0.084
- protein stability index [2]: 2.29 ± 0.19

Sequence: RMETPKSREITTLANNQCMATESV [EHMT1]
- protein stability index [1]: 4.56 ± 0.22
- protein stability index [2]: 4.79 ± 0.08

Sequence: DSVDAQNICHVWHMNVEALPEWIS [RNF180]
- protein stability index [1]: 2.44 ± 0.34
- protein stability index [2]: 2.62 ± 0.38

Sequence: DEKQCKQCANKVLQHMKAVQADQE [LRRC59]
- protein stability index [1]: 4.78 ± 0.19
- protein stability index [2]: 4.63 ± 0.22

Sequence: FIPSLKYVQWSLPFIVFGATGLTS [SLC22A15]
- protein stability index [1]: 3.14 ± 0.22
- protein stability index [2]: 3.33 ± 0.36

Sequence: PSVIQEIHQESGKAPSTDDATWAA [C10orf62]
- protein stability index [1]: 4.29 ± 0.33
- protein stability index [2]: 4.66 ± 0.34

Sequence: GGLGGGYGGGLGGGFGGGFAGGFV [KRT13]
- protein stability index [1]: 2.16 ± 0.25
- protein stability index [2]: 2.1 ± 0.82

Sequence: PCSKAVMSQALKATFSGFKKEQRR [ETS2]
- protein stability index [1]: 3.15 ± 0.21
- protein stability index [2]: 3.27 ± 0.28

Sequence: EAFALPDSLLVVLDMDEGTLSFIV [SPSB4]
- protein stability index [1]: 2.42 ± 0.21
- protein stability index [2]: 2.53 ± 0.31

Sequence: TVRFCILGKESFYDTFHTVADMMY [HACD3]
- protein stability index [1]: 2.8 ± 0.69
- protein stability index [2]: 2.85 ± 0.78

Sequence: GGYEKASKRMTFQMPKFDLGPLLS [MYOZ1]
- protein stability index [1]: 2.54 ± 0.32
- protein stability index [2]: 2.64 ± 0.22

Sequence: QEANARERNRMHGLNDALDNLRKV [NEUROD6]
- protein stability index [1]: 4.55 ± 0.14
- protein stability index [2]: 4.56 ± 0.23

Sequence: KTESSGIETEPTVHHLPLSTEKVV [EPB41L3]
- protein stability index [1]: 5.21 ± 0.14
- protein stability index [2]: 5 ± 0.25

Sequence: LTASRQSFRMAMGNPSEFFVDVM [DVL3]
- protein stability index [3]: 2.41 ± 0.65
- protein stability index [4]: 2.54 ± 0.85
